Five molecules from paper PMC6645366 can be followed below.

In series [1] the target is T1, PUM2 RNA-binding domain (Homo sapiens, UniProt Q8TB72 706-1059). In words: EMSA. (In EMSA bound probe runs differently from free probe, usually more slowly.)
Series [2] deals with T1, PUM2 RNA-binding domain. In words: competition EMSA.
Series [3] has as its target T1, PUM2 RNA-binding domain. In words: EMSA. The source holds these as a separate data set.

T1 sequence (Q8TB72 706-1059): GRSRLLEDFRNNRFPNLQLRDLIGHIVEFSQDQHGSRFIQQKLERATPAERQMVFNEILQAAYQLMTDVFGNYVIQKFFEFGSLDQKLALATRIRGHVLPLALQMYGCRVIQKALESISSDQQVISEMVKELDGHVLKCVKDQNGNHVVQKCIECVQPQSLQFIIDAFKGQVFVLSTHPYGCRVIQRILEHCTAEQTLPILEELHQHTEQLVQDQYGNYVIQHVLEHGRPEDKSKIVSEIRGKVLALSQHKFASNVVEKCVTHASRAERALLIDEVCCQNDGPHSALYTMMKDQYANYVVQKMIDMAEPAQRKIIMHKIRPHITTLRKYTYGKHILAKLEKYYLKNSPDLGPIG

For the molecule CUUGUAUAUAG (ssRNA), in the series with PUM2 RNA-binding domain [1], the binding result is “binds”.

For UGUAUAUA (ssRNA) [8-mer consensus], the binding result in the series with PUM2 RNA-binding domain [2] was “binds”.

UGUAUAGA (ssRNA) [8-mer 7G]: the binding result in the series with PUM2 RNA-binding domain [2] is on record as “binds”.

For UGUAGAUA (ssRNA) [8-mer 5G], in the series with PUM2 RNA-binding domain [2], the binding result is given as “binds”.

Turning to UCUCUUUGUAUAUAUCUCUU (ssRNA) [S1a RNA], the binding result with PUM2 RNA-binding domain [3] is on record as “binds”.
